Measurements from publication PMC4475429 (2015).

Target: PKA RIα (Homo sapiens, UniProt P10644)
Test: fluorescence polarization competition vs RI-STAD-3

Chain of PKA RIα (P10644 whole entry): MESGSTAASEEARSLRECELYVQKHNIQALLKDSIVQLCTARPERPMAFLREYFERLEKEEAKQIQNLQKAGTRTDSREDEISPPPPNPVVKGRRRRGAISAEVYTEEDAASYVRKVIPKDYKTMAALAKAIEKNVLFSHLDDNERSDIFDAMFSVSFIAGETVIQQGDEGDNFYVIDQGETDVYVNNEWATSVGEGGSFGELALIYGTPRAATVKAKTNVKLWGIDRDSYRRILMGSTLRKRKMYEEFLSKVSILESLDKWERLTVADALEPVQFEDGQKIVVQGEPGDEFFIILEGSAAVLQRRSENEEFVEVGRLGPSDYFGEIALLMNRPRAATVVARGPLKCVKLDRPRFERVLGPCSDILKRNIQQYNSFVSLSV

B1: Ht31 AKB (peptide)
chain: WKNVLQGGESTKERFENSNIGTA
IC50: 1500 nM
